The text below walks through data of article PMC13245265.

For this test, the target named is Tectus dentatus superoxide dismutase 1 (Tectus dentatus). The test can be described thus: SEC. In general terms: Size exclusion chromatography separates by hydrodynamic size, large species first.

By stoichiometry N is commonly meant a count of units in the complex or per binding partner. “Tectus dentatus superoxide dismutase 1 (enzyme)” registered a stoichiometry N of 2.
